Experimental data from patent publication US20190359687A1 (Bayer, published 2019).
Residue numbers refer to the chain shown, from its start. One block for each binder: values may come before it.

How the values were obtained:
[1] = target: T1, human glycophorin A on human red blood cells (human, UniProt P02724 20-150); assay: partition to human RBC, vWF deficient plasma, 1 min
T1 construct: whole, on cells; also called human GPA; huGPA
T1 sequence (looked up): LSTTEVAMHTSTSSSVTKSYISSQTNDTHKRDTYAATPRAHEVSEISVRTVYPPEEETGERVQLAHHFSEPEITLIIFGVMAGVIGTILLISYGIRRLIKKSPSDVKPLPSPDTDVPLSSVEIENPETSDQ

[2] = target: T1, human glycophorin A on human red blood …; assay: partition to human RBC, vWF deficient plasma, 15 min
[3] = target: T1, human glycophorin A on human red blood …; assay: partition to human RBC, vWF deficient plasma, 5 min
[4] = target: T1, human glycophorin A on human red blood …; assay: partition to human RBC, human HemA plasma, 120 min
Procedure: The supernatant containing plasma, platelets and white blood cells was discarded and the red blood cell pellet was resuspended in 10 pellet volumes of PBS (50 mM Phosphate buffer, pH7.4, 150 mM NaCl). The red blood cells were then pelleted by slow speed centrifugation and the red blood cells re-suspended in 10 volumes of PBS. This washing step was repeated 4 more times and the red blood cells finally resuspended in a volume of plasma from Hemophilia patients with less than 1% of normal levels of FVIII (GeorgeKing Bio-Medical, Overland Park, Kans.) to generate a total volume equal to the initial blood volume such that the RBC density was equal to that of normal whole blood. BDD and RBC targeted FVIII molecules were then spiked into RBC suspension in HemA plasma at 1 IU/mL, and incubated at room temperature for 2-3 hours with gentle rotation. […] An additional control was performed in which BDD or RBC targeted FVIII molecules were added at 11U/ml into the same human hemophilia A plasma and incubated for 5 minutes and 180 mins. These samples were used to determine the input FVIII activity in the presence of plasma which was used to calculate the percentage of the molecule that was bound to RBC. All plasma samples were then assayed together for FVIII activity using the Coatest SP assay (DiaPharma, Columbus, Ohio). The assay was performed following the manufacturer's instructions in a 96-well plate format. […] The plate was incubated at 37° C. for 10 minutes with shaking between each reagent addition. […] The amount of FVIII activity in the plasma reflects the amount of unbound FVIII. The FVIII activity of the same molecule spiked in to Hemophilia A plasma alone (no RBC) and incubated for 5 minutes was normalized to 100%.

[5] = target: T2, Cynomolgus monkey glycophorin A on Cynomolgus monkey red blood cells (Cynomolgus monkey); assay: partition to Cyno RBC, human HemA plasma, 30 min;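 also: FVIII fusion spiked at 1 IU/mL into RBC suspension at whole-blood density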
T2 construct: whole, on cells; also called Cyno GPA; Cyno RBC

[6] = target: T2, Cynomolgus monkey glycophorin A on …; assay: partition to Cyno RBC, human HemA plasma, 1 min;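 also: FVIII fusion spiked at 1 IU/mL into RBC suspension at whole-blood density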
Procedure: (§1) To evaluate partition to cynomolgus monkey or human red blood cells, whole blood was draw from Cynomolgus monkey or normal human volunteers in to anticoagulant with 4% sodium citrate (Sigma, St Louis, Mo.). The red blood cells were purified by layering the whole blood on to ficoll followed by low speed centrifugation. The supernatant containing plasma, platelets and white blood cells was discarded and the red blood cell pellet was resuspended in 10 pellet volumes of PBS (50 mM Phosphate buffer, pH7.4, 150 mM NaCl). The red blood cells were then pelleted by slow speed centrifugation and the red blood cells re-suspended in 10 volumes of PBS. This washing step was repeated 4 more times and the red blood cells finally resuspended in a volume of plasma from Hemophilia patients with less than 1% of normal levels of FVIII (GeorgeKing Bio-Medical, Overland Park, Kans.) to generate a total volume equal to the initial blood volume such that the RBC density was equal to that of normal whole blood. BDD and RBC targeted FVIII molecules were then spiked into RBC suspension in HemA plasma at 1 IU/mL, and incubated at room temperature for 2-3 hours with gentle rotation. […] An additional control was performed in which BDD or RBC targeted FVIII molecules were added at 11U/ml into the same human hemophilia A plasma and incubated for 5 minutes and 180 mins. These samples were used to determine the input FVIII activity in the presence of plasma which was used to calculate the percentage of the molecule that was bound to RBC. All plasma samples were then assayed together for FVIII activity using the Coatest SP assay (DiaPharma, Columbus, Ohio). The assay was performed following the manufacturer's instructions in a 96-well plate format. […] The plate was incubated at 37° C. for 10 minutes with shaking between each reagent addition.

[7] = target: T2, Cynomolgus monkey glycophorin A on …; assay: partition to Cyno RBC, human HemA plasma, 120 min;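 also: FVIII fusion spiked at 1 IU/mL into RBC suspension at whole-blood density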
[8] = target: T1, human glycophorin A on human red blood …; assay: partition to human RBC, vWF deficient plasma, 30 min
[9] = target: T1, human glycophorin A on human red blood …; assay: partition to human RBC, vWF deficient plasma, 120 min
[10] = target: T2, Cynomolgus monkey glycophorin A on …; assay: partition to Cyno RBC, human HemA plasma, 60 min;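 also: FVIII fusion spiked at 1 IU/mL into RBC suspension at whole-blood density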
Procedure: as §1

[11] = target: T3, glycophorin A peptide GP5 (human, biotin at the N-terminus); assay: Octet, GP5 peptide on the probe, fusion protein in solution, 1:1 fit
T3 construct: Residues 42 to 61 of the human glycophorin A extracellular domain
T3 peptide: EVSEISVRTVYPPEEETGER

[12] = target: T2, Cynomolgus monkey glycophorin A on …; assay: partition to Cyno RBC, human HemA plasma, 15 min;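 also: FVIII fusion spiked at 1 IU/mL into RBC suspension at whole-blood density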
Procedure: as §1

[13] = target: T2, Cynomolgus monkey glycophorin A on …; assay: partition to Cyno RBC, human HemA plasma, 5 min;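 also: FVIII fusion spiked at 1 IU/mL into RBC suspension at whole-blood density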
Procedure: as §1

[14] = target: T1, human glycophorin A on human red blood …; assay: partition to human RBC, vWF deficient plasma, 60 min
[15] = target: T4, Rhesus monkey glycophorin A on Rhesus monkey red blood cells (Rhesus monkey, UniProt A0A1D5Q349 20-150); assay: FACS, RBC Rh03
T4 construct: whole, on cells; also called Rhesus RBC; monkey GPA
T4 sequence: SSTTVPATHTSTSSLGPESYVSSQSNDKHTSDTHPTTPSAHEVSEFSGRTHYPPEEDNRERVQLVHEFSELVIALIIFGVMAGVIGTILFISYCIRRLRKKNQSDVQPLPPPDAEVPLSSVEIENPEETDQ
Procedure: (§2) The binding of the humanized variants to intact red blood cells (RBC) from humans (Hu01 to 03; 3 individuals), Rhesus monkey (Rh01 to 03; 3 individuals) and Cynomolgus monkey (Cy01 to 02; 2 individuals) was measured by fluorescence activated cell sorting (FACS).

[16] = target: T5, human glycophorin A in the red blood cell membrane (human, UniProt P02724 20-150); assay: FACS, RBC Hu01
T5 construct: whole, on cells; used for intact RBC, isolated RBC membranes and transfected cells; the assay field tells which; also called GPA; hGPA
T5 sequence (looked up): T1 sequence (looked up)
Procedure: as §2

[17] = target: T4, Rhesus monkey glycophorin A on Rhesus …; assay: FACS, RBC Rh02
[18] = target: T5, human glycophorin A in the red blood …; assay: FACS, RBC Hu03
Procedure: as §2

[19] = target: T5, human glycophorin A in the red blood …; assay: FACS, IgG
Procedure: as §2

[20] = target: T6, Cynomolgus monkey glycophorin A on Cynomolgus monkey red blood cells (Cynomolgus monkey); assay: FACS, RBC Cy01
T6 construct: whole, on cells; also called Cyno RBC; Cyno GPA
Procedure: as §2

[21] = target: T6, Cynomolgus monkey glycophorin A on …; assay: FACS, RBC Cy02
Procedure: as §2

[22] = target: T4, Rhesus monkey glycophorin A on Rhesus …; assay: FACS, RBC Rh01
Procedure: as §2

[23] = target: T5, human glycophorin A in the red blood …; assay: FACS, RBC Hu02
Procedure: as §2

percentage bound to human RBC [1]: 45.9%
percentage bound to human RBC [2]: 78%
percentage bound to human RBC [3]: 69.5%
percentage bound to human RBC [4]: 76.4%
% bound to Cyno RBC [5]: 73%
% bound to Cyno RBC [6]: 17.4%
% bound to Cyno RBC [7]: 79%
percentage bound to human RBC [8]: 79.4%
percentage bound to human RBC [9]: 79.6%
% bound to Cyno RBC [10]: 78.5%
Kd [11]: 4.89 nM
koff [11]: 0.0027 s⁻¹
kon [11]: 525000 M⁻¹ s⁻¹
% bound to Cyno RBC [12]: 65.7%
% bound to Cyno RBC [13]: 53%
percentage bound to human RBC [14]: 78.8%
B1: TPP-8743 FVIII-scFv fusion protein (other)
chain: ATRRYYLGAVELSWDYMQSDLGELPVDARFPPRVPKSFPFNTSVVYKKTLFVEFTDHLFNIAKPRPPWMGLLGPTIQAEVYDTVVITLKNMASHPVSLHAVGVSYWKASEGAEYDDQTSQREKEDDKVFPGGSHTYVWQVLKENGPMASDPLCLTYSYLSHVDLVKDLNSGLIGALLVCREGSLAKEKTQTLHKFILLFAVFDEGKSWHSETKNSLMQDRDAASARAWPKMHTVNGYVNRSLPGLIGCHRKSVYWHVIGMGTTPEVHSIFLEGHTFLVRNHRQASLEISPITFLTAQTLLMDLGQFLLFCHISSHQHDGMEAYVKVDSCPEEPQLRMKNNEEAEDYDDDLTDSEMDVVRFDDDNSPSFIQIRSVAKKHPKTWVHYIAAEEEDWDYAPLVLAPDDRSYKSQYLNNGPQRIGRKYKKVRFMAYTDETFKTREAIQHESGILGPLLYGEVGDTLLIIFKNQASRPYNIYPHGITDVRPLYSRRLPKGVKHLKDFPILPGEIFKYKWTVTVEDGPTKSDPRCLTRYYSSFVNMERDLASGLIGPLLICYKESVDQRGNQIMSDKRNVILFSVFDENRSWYLTENIQRFLPNPAGVQLEDPEFQASNIMHSINGYVFDSLQLSVCLHEVAYWYILSIGAQTDFLSVFFSGYTFKHKMVYEDTLTLFPFSGETVFMSMENPGLWILGCHNSDFRNRGMTALLKVSSCDKNTGDYYEDSYEDISAYLLSKNNAIEPRSFSQNGGGGSTGGTGGSSGGGTGSGGGGTGGSGGTDIQLTQSPSFLSASVGDRVTITCRASSSVRYIYWFQQKPGKAPKLLIYATSFRQSGVPSRFSGSGSGTEYTLTISSLQPEDFATYYCHQRNSFPYTFGQGTKLEIKGGGGSGGGGSGGGGSGGGGSEVQLVQSGAEVKKPGASVKVSCKASGYTFTTYAIHWVRQAPGQGLEWMGYINPSSGYTRYNPKFKGRVTMTRDKSTSTAYMELRSLRSDDTAVYYCWTGTRDYWGQGTTVTVSSGGGGSQNPPVLKRHQREITDENQSPRSFQKKTRHYFIAAVERLWDYGMSSSPHVLRNRAQSGSVPQFKKVVFQEFTDGSFTQPLYRGELNEHLGLLGPYIRAEVEDNIMVTFRNQASRPYSFYSSLISYEEDQRQGAEPRKNFVKPNETKTYFWKVQHHMAPTKDEFDCKAWAYFSDVDLEKDVHSGLIGPLLVCHTNTLNPAHGRQVTVQEFALFFTIFDETKSWYFTENMERNCRAPCNIQMEDPTFKENYRFHAINGYIMDTLPGLVMAQDQRIRWYLLSMGSNENIHSIHFSGHVFTVRKKEEYKMALYNLYPGVFETVEMLPSKAGIWRVECLIGEHLHAGMSTLFLVYSNKCQTPLGMASGHIRDFQITASGQYGQWAPKLARLHYSGSINAWSTKEPFSWIKVDLLAPMIIHGIKTQGARQKFSSLYISQFIIMYSLDGKKWQTYRGNSTGTLMVFFGNVDSSGIKHNIFNPPIIARYIRLHPTHYSIRSTLRMELMGCDLNSCSMPLGMESKAISDAQITASSYFTNMFATWSPSKARLHLQGRSNAWRPQVNNPKEWLQVDFQKTMKVTGVTTQGVKSLLTSMYVKEFLISSSQDGHQWTLFFQNGKVKVFQGNQDSFTPVVNSLDPPLLTRYLRIHPQSWVHQIALRMEVLGCEAQDLY
notes: The entry is the mature protein without signal peptide; most of the material is cut at the furin site into two chains; also called PPB 6723

fluorescence intensity [15]: 1270
fluorescence intensity [16]: 3
fluorescence intensity [17]: 1280
fluorescence intensity [18]: 2
binding result [19]: no binding
fluorescence intensity [20]: 824
fluorescence intensity [21]: 937
fluorescence intensity [22]: 1370
fluorescence intensity [23]: 3
B4: Hu6C12-13 (antibody, V domains shown)
VH: EVQLVQSGAEVKKPGASVKVSCKASGYTFTTYTIHWVRQAPGQGLEWMGYINPSSDYTRYNPKFKDRVTLTTDTSTSTAYMELRSLRSDDTAVYYCQRGTRDYWGQGTTVTVSS
VL: DIQLTQSPSFLSASVGDRVTITCSAASSVSYIYWYQQKPGKAPKLLIYSTSTLPSGVPSRFSGSGSGTEYTLTISSLQPEDFATYYCHQRNSFPFTFGQGTKLEIK
notes: IgG format; VH.1d + Vk.1a

The remaining lines, values behind:

B2: Hu6C12-4 (antibody, V domains shown)
VH: B4 VH
VL: B4 VL with Y70F
notes: IgG format; VH.1d + Vk.1
fluorescence intensity [15]: 1340
fluorescence intensity [16]: 3
fluorescence intensity [17]: 1320
fluorescence intensity [18]: 2
binding result [19]: no binding
fluorescence intensity [20]: 884
fluorescence intensity [21]: 989
fluorescence intensity [22]: 1070
fluorescence intensity [23]: 3

B3: Hu6C12-9 (antibody, V domains shown)
VH: B4 VH with L70M, Q97A
VL: B4 VL
notes: IgG format; VH.1 + Vk.1a
fluorescence intensity [15]: 1050
fluorescence intensity [16]: 3
fluorescence intensity [17]: 1060
fluorescence intensity [18]: 2
binding result [19]: no binding
fluorescence intensity [20]: 680
fluorescence intensity [21]: 756
fluorescence intensity [22]: 1060
fluorescence intensity [23]: 3

B5: Hu6C12-10 (antibody, V domains shown)
VH: B4 VH with L70M
VL: B4 VL
notes: IgG format; VH.1a + Vk.1a
fluorescence intensity [15]: 1310
fluorescence intensity [16]: 3
fluorescence intensity [17]: 1310
fluorescence intensity [18]: 2
binding result [19]: no binding
fluorescence intensity [20]: 872
fluorescence intensity [21]: 973
fluorescence intensity [22]: 1410
fluorescence intensity [23]: 3
